The chains are these.
B1: TPR t1 (parent)
chain: GACCAAUCUGCCCUCAGAGCUCGAGAACAUCUUCGGAUGCAGAGGAGGCAGGCUUCGGUGGCGCGAUAGCGCCAACGUCCUCAACCUCCAAUGCAUCCCACCACAUGAUGAUGCCUGAAGAGCCUUGGUUUUUUG

The variants in this data set derive from B1. As to the kind of experiment: polymerase ribozyme fitness, log enrichment relative to wild type (log ratio); higher = more active; in vitro selection for triplet polymerase activity. In a few lines:
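Each subunit of a heterodimeric triplet polymerase ribozyme was mutagenized into a library by PCR, transcribed, and subjected to one round of in vitro selection, run in triplicate. Libraries were annealed with a biotinylated primer, the partner subunit and triplets, incubated frozen at −7 °C, and extended constructs were gel-excised, captured on streptavidin beads and recovered by RT-PCR. Input and output libraries were sequenced on Illumina, keeping genotypes with ≥10 input reads and ≥1 read per output. Fitness is log base 2 of genotype enrichment divided by wild-type enrichment, from inverse-variance-weighted replicate averages.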
For G71C G122A, the “polymerase ribozyme fitness (log ratio)” value is -2.06.
In the case of G57U C62G, the “polymerase ribozyme fitness (log ratio)” value is -1.62.
Then C28G U32C G51U C79G, with -5.29; and A16G G77A A111G G113A A118G, with -3.63.
Then A43C G93C U130A, with -3.38; and A24C A91U G117U C123G, with -7.92.
With U21C A29G A37U G71U the figure was -1.56.
Take C8U C15G A16U C70U A118C G120A C124U: the “polymerase ribozyme fitness (log ratio)” value was -2.69.
Take G10A G61A A91C C123U: the “polymerase ribozyme fitness (log ratio)” value was found to be 0.979.
Then G51C G61A G120A U132A, with -2.03; and C70U U87C C123G, with 2.6.
With U7G C40U G69C C99U the figure was -4.48; with A27G C64U G77U C85A U130C, -4.3; with A6U G60U, -0.858.
With G25U G120A the figure was -3.94; with C53U A84U U126C, -1.72; with C49G A119U, -0.491.
With C94G C115A A121C, the “polymerase ribozyme fitness (log ratio)” value was 0.289.
Consider A46U C49U G63U C115U, for which the “polymerase ribozyme fitness (log ratio)” value was -5.27.
Then A83G G127C, with -1.88; and G47U C53G U96G C104U A118G C124U, with -1.59; and G51A G63U C80A U96G, with -5.76.
Consider A50G G69A A90C, for which the “polymerase ribozyme fitness (log ratio)” value was -6.86.
Then U9G G71A C80U C98U G110U, with -6.92; and U14G G19A G42A C56A G93C, with -5.15.
With G42U A43C, the “polymerase ribozyme fitness (log ratio)” value was -1.95.
With G113U C124U the figure was -2.48; with C8U A41C G58U C94G C104U U106A U112C, -3.18; with C28A G110C C115U U133A, -5.27.
Then G61A A83C G110U G117U, with -5.13; and G42C G71A C72A C115U, with -5.81; and G69C C85A G117C A121C, with -5.54.
With A46U G77A G127C the figure was -2.57; with C13G C40U C49A, -2.42; with C73U C94U, -0.847.
Turning to G25U A46U, the “polymerase ribozyme fitness (log ratio)” value was -5.86.
Then A41C G61U, with -0.204; and G69A G107C U112A, with -6.47; and C15A C40U G120C, with -0.554.
For A46C C56G C72G U87A A100U C124A, the “polymerase ribozyme fitness (log ratio)” value was -0.516.
Then C28U C53G U59G, with -2.35; and G47A G48U, with -1.13; and G52C C123G U133G, with 0.949.
In the case of U7G C34U G69U C123U U133C, the “polymerase ribozyme fitness (log ratio)” value came out at 1.52.
With C11A C13G G36U the figure was -2.87.
With C20U A24U U32C C85U C101G G110U the figure was -6.93; with A37U C64U U132C, -0.703.
Then G36A G61U U87C C123G, with 0.936.
In the case of G61A A83U A90G, the “polymerase ribozyme fitness (log ratio)” value was found to be 0.0238.
With A16U U59A the figure was 0.971; with U59A C89U U106A, -0.429; with C40U A41U C72U, -1.91.
With U112G A121U the figure was 0.924.
With G52U C62G C89G U109C A111U the figure was -6.22; with U14G C72U G135U, -2.55; with G10U G71A G120U, 1.24.
U9G G113U: the “polymerase ribozyme fitness (log ratio)” value was -1.66.
Turning to U7A U38C A41C G44U, the “polymerase ribozyme fitness (log ratio)” value was -3.32.
With C11A C49G C64U A121U the figure was 0.957.
Then G10U G93A, with -0.609.
A37U C80U C101A: the “polymerase ribozyme fitness (log ratio)” value was -2.69.
Turning to U87G A111C, the “polymerase ribozyme fitness (log ratio)” value was found to be 1.16.
Then C62A C79U C89G U130A, with -3.65; and C20U G77A A84U U112G, with -2.88.
Then C20A C53A U78G C82G U112A, with -0.686.
Then G45C C56U U81G G113C, with -4.36; and G63U C99U U106A, with -3.55; and A74C C82A, with -0.0256.
With A83C U106A C123U, the “polymerase ribozyme fitness (log ratio)” value was 1.46.
Then G58C A95G U109A, with -5.73.
With C34G C94U the figure was -6.86; with A5U, -0.135; with C13U A46U U54G A95U C123U, 1.11.
Then U55G A103C, with -4.87; and C40U G42A G122U C123A, with -1.77; and G19C A43C G44C C64A A105C A111U, with -7.06.
With G61A U81G, the “polymerase ribozyme fitness (log ratio)” value was -3.89.
With A41U G48U C104A A121G G122A the figure was -3.77; with U54A G61A U106A C124U U129G, -0.685; with C12U C22U A46U, -4.76.
Then C40A G63U C104U C115G, with -3.72.
Then C20G A90C C98U C124A U126A, with -4.21; and C11G G36A G127A, with -2.95.
